Laboratory results from IntAct's records for PubMed 20924357.

How the values were obtained:
bglg_ecoli bglG [1] = target: bglg_ecoli bglG (UniProt P11989)
bglg_ecoli bglG [2] = target: bglg_ecoli bglG (UniProt P11989); remark: listed apart in the source
bglg_ecoli bglG [3] = target: bglg_ecoli bglG (UniProt P11989); remark: listed apart in the source

Chain of bglg_ecoli bglG (P11989 whole entry): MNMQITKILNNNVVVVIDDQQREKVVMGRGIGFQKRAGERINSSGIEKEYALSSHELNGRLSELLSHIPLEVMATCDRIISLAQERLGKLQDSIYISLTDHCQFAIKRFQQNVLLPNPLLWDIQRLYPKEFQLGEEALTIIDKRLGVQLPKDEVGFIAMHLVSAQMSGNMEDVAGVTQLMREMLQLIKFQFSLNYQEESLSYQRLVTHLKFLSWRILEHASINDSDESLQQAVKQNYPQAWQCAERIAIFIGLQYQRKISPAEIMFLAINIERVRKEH

Substance | effect of a mutation on the interaction (bglg_ecoli bglG [1]) | effect of a mutation on the interaction (bglg_ecoli bglG [2]) | effect of a mutation on the interaction (bglg_ecoli bglG [3])
Phosphocarrier protein HPr (Escherichia coli (strain K12)), P0AA04 H15A | increasing interaction | – | –
Phosphoenolpyruvate-protein phosphotransferase (Escherichia coli (strain K12)), P08839 H189A | – | disrupting interaction | decreasing interaction
